Results as given in the supplement of paper PMC9112550, “Optimization of the antimicrobial peptide Bac7 by deep mutational scanning” (BMC Biology, 2022).

Each sequence was assayed on Escherichia coli TOP10 (assay: shrunken log2 fold change of peptide-encoding DNA abundance (4.5 h post-induction vs induction); higher = less antimicrobial activity (less host growth inhibition)). Details: time post-induction: 4.5 h; library: site-saturation at positions 5, 18, 19, 20.
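Also: peptides expressed intracellularly from a pBAD plasmid library in pooled LB shake-flask culture, induced with 0.3% L-arabinose, DNA abundance read by NGS, three biological replicates, DESeq2 with apeglm shrinkage.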

| Sequence | shrunken log2 fold change |
| --- | --- |
| RRIRARPPRLPRPRPRPWGFPRP | 0.206 |
| RRIRARPPRLPRPRPRPWGTPRP | 0.211 |
| RRIRARPPRLPRPRPRPWGWPRP | 0.649 |
| RRIRARPPRLPRPRPRPWHNPRP | -0.0874 |
| RRIRARPPRLPRPRPRPWIAPRP | -0.0071 |
| RRIRARPPRLPRPRPRPWIHPRP | -0.264 |
| RRIRARPPRLPRPRPRPWLKPRP | -0.0421 |
| RRIRARPPRLPRPRPRPWMRPRP | 0.263 |
| RRIRARPPRLPRPRPRPWNYPRP | -0.625 |
| RRIRARPPRLPRPRPRPWQDPRP | 0.0326 |
| RRIRARPPRLPRPRPRPWQYPRP | -0.123 |
| RRIRARPPRLPRPRPRPWRAPRP | 0.338 |
| RRIRARPPRLPRPRPRPWRRPRP | 0.267 |
| RRIRARPPRLPRPRPRPWRYPRP | -0.163 |
| RRIRARPPRLPRPRPRPWTDPRP | -0.0701 |
| RRIRARPPRLPRPRPRPWTIPRP | -0.0653 |
| RRIRARPPRLPRPRPRPWVAPRP | 0.285 |
| RRIRARPPRLPRPRPRPWVVPRP | 0.0153 |
| RRIRARPPRLPRPRPRPWWCPRP | -0.0725 |
| RRIRARPPRLPRPRPRPWWNPRP | -0.108 |
| RRIRARPPRLPRPRPRPYCQPRP | -0.138 |
| RRIRARPPRLPRPRPRPYCVPRP | 0.118 |
| RRIRARPPRLPRPRPRPYCYPRP | -0.227 |
| RRIRARPPRLPRPRPRPYDAPRP | 0.0611 |
| RRIRARPPRLPRPRPRPYDCPRP | -0.131 |

| Sequence | shrunken log2 fold change |
| --- | --- |
| RRIRARPPRLPRPRPRPYEAPRP | -0.222 |
| RRIRARPPRLPRPRPRPYFKPRP | -0.551 |
| RRIRARPPRLPRPRPRPYGGPRP | -0.221 |
| RRIRARPPRLPRPRPRPYHHPRP | -0.826 |
| RRIRARPPRLPRPRPRPYHYPRP | -0.0868 |
| RRIRARPPRLPRPRPRPYIMPRP | -0.675 |
| RRIRARPPRLPRPRPRPYKGPRP | -0.144 |
| RRIRARPPRLPRPRPRPYKWPRP | -0.393 |
| RRIRARPPRLPRPRPRPYMIPRP | -0.494 |
| RRIRARPPRLPRPRPRPYNAPRP | -1.2 |
| RRIRARPPRLPRPRPRPYPYPRP | -0.152 |
| RRIRARPPRLPRPRPRPYRAPRP | -0.141 |
| RRIRARPPRLPRPRPRPYRRPRP | -0.174 |
| RRIRARPPRLPRPRPRPYSEPRP | -0.339 |
| RRIRARPPRLPRPRPRPYTAPRP | -0.0946 |
| RRIRARPPRLPRPRPRPYTWPRP | -0.428 |
| RRIRARPPRLPRPRPRPYYKPRP | -0.675 |
| RRIRCRPPRLPRPRPRPAAHPRP | 0.37 |
| RRIRCRPPRLPRPRPRPADCPRP | -0.0557 |
| RRIRCRPPRLPRPRPRPADFPRP | 1.07 |
| RRIRCRPPRLPRPRPRPADIPRP | -0.941 |
| RRIRCRPPRLPRPRPRPADWPRP | 0.29 |
| RRIRCRPPRLPRPRPRPAECPRP | -0.223 |
| RRIRCRPPRLPRPRPRPAEDPRP | 0.213 |
| RRIRCRPPRLPRPRPRPAEMPRP | -0.0594 |

| Sequence | shrunken log2 fold change |
| --- | --- |
| RRIRCRPPRLPRPRPRPAFGPRP | 0.194 |
| RRIRCRPPRLPRPRPRPAGIPRP | -0.0496 |
| RRIRCRPPRLPRPRPRPAGWPRP | 0.719 |
| RRIRCRPPRLPRPRPRPALCPRP | 0.185 |
| RRIRCRPPRLPRPRPRPALMPRP | -0.011 |
| RRIRCRPPRLPRPRPRPAMNPRP | -0.0385 |
| RRIRCRPPRLPRPRPRPANAPRP | -0.0408 |
| RRIRCRPPRLPRPRPRPANMPRP | -0.277 |
| RRIRCRPPRLPRPRPRPAPGPRP | 0.75 |
| RRIRCRPPRLPRPRPRPAQFPRP | 0.0313 |
| RRIRCRPPRLPRPRPRPAQGPRP | 0.631 |
| RRIRCRPPRLPRPRPRPAQPPRP | 0.366 |
| RRIRCRPPRLPRPRPRPASFPRP | -0.176 |
| RRIRCRPPRLPRPRPRPASYPRP | -0.295 |
| RRIRCRPPRLPRPRPRPATAPRP | 0.41 |
| RRIRCRPPRLPRPRPRPAVDPRP | 0.449 |
| RRIRCRPPRLPRPRPRPAVLPRP | -0.218 |
| RRIRCRPPRLPRPRPRPAWDPRP | 0.235 |
| RRIRCRPPRLPRPRPRPAYPPRP | -0.149 |
| RRIRCRPPRLPRPRPRPCCDPRP | -0.27 |
| RRIRCRPPRLPRPRPRPCEDPRP | -0.219 |
| RRIRCRPPRLPRPRPRPCEFPRP | -0.0925 |
| RRIRCRPPRLPRPRPRPCEGPRP | 0.0324 |
| RRIRCRPPRLPRPRPRPCEKPRP | 0.0534 |
| RRIRCRPPRLPRPRPRPCFKPRP | -0.603 |
